Measurements taken from patent US20230126400A1 (Alector, published 2023).
One block for each binder: values may come before it.

How the values were obtained:
[1] = molecular target: T1, cynomolgus (cyno) MS4A4A (cynomolgus); assay: functional affinity, FACS titration on stably transfected 300.19 cells
T1 construct: also called cy4A; Cyno 4A
Method: (§1) Determination of functional affinity/KD was carried out as follows. A constant number of 300.19 cells stably transfected with constructs expressing MS4A4A were blocked against non-specific binding, and then incubated with anti-MS4A4A antibodies at various concentrations predetermined to span from saturation-binding to no antibodies present for three hours on ice so the reaction is allowed to achieve near equilibrium. The cells were then washed and incubated with fluorophore-conjugated secondary antibodies, washed again, and signal determined by FACS Cantos (Becton Dickinson, Franklin Lake, N.J.). To determine functional/KD, the four-parameter dose response curve with variable slope was fitted onto the data by Prism (Graphpad, San Diego, Calif.), based on the multiple independent binding site model described by Drake and Klakamp, supra.

[2] = molecular target: T2, human MS4A4A ECL1 peptide (amino acid residues 86-98) (human); assay: peptide ELISA
T2 construct: synthetic peptide
T2 peptide: CMASNTYGSNPIS
Method: (§2) Briefly, 96-well polystyrene plates were coated with 2 or 10 m/ml of synthetic free or BSA-conjugated peptides in coating buffer (0.05M carbonate buffer, pH9.6, Millipore Sigma Cat#C3041) overnight at 4° C. Coated plates were then blocked with ELISA diluent (PBS+0.5% BSA+0.05% Tween20) for 1-hour, washed 3×300 μL in PBST (PBS+0.05% Tween20, Thermo Cat#28352), and then the antibodies were added to the plate (50 μl/well). After 30 mins incubation (room temperature, with shaking), the plates were washed 3×300 μL in PBST. […] After a final set of washes (3×300 μL in PBST), 50 μL of TMB substrate (BioFx Cat#TMBW-1000-01) was added and the reaction was then quenched after 5-10 mins with 50 μL of stop solution (BioFx Cat#BSTP-1000-01). The quenched reaction wells were detected for absorbance at 650nm with a BioTek Synergy Microplate Reader using GENS 2.04 software.

[3] = molecular target: T3, human MS4A4A (human, UniProt Q96JQ5 1-239); assay: FACS, K562 cells, supernatant; K562 cells overexpressing h4A
Method: (§3) Positive clones identified in Example 22 above were expanded and then rescreened for specificity against U937, K562, and/or 300.19 cells stably overexpressing human MS4A4A or cyno MS4A4A and parental U937, K562, and/or 300.19 cells. These experiments were performed using supernatants from hybridoma clones which had undergone further expansion after initial selection. Briefly, stably transfected cells were labeled with LIVE/DEAD Fixable Aqua Dead Cell Stain Kit (ThermoFisher Scientific Cat#L34957) on ice for 30 minutes. […] 2×10⁵ cells were aliquoted per well in 96-well U-bottom plates and incubated with 50 μl of culture supernatant on ice for 30 minutes. […] Following this secondary incubation, the cells were again washed twice with ice-cold FACS buffer and resuspended in a final volume of 200 μl of FACS buffer. Analysis was performed on a FACS Canto system (BD Biosciences), with gates drawn to exclude dead (Aqua-positive) cells.
(§4) The APC ratio was calculated for each antibody as follows. […] For cell lines overexpressing human MS4A4A (h4A) or cyno MS4A4A (cy4A), the ration was calculated by comparing the binding measured to the binding observed on the corresponding parental cell lines.

[4] = molecular target: T4, human MS4A4A ECL2 peptide (amino acid residues 159-179), free (human); assay: peptide ELISA, supernatant
T4 construct: synthetic peptide; also called huMS4A4A-ELC2 free-peptide
T4 peptide: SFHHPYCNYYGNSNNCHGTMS

[5] = molecular target: T1, cynomolgus (cyno) MS4A4A; assay: FACS, stably transfected cells
[6] = molecular target: T3, human MS4A4A; assay: functional affinity, FACS titration on stably transfected 300.19 cells
Method: as §1

[7] = molecular target: T5, BSA-conjugated human MS4A4A ECL2 peptide (amino acid residues 159-179) (human, conjugated to BSA (site not stated)); assay: ELISA, hybridoma supernatant
T5 construct: also called MS4A4A-ECL2 BSA conjugated peptide; BSA-MS4A4A-ELC2 peptide
T5 peptide: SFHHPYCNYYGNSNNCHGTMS

[8] = molecular target: T6, human MS4A6A ECL1 peptide (amino acid residues 68-85) (human); assay: array SPR
T6 peptide: SASFSPNFTQVTSTLLNS

[9] = molecular target: T7, human MS4A6A ECL2 peptide (amino acid residues 138-185) (human); assay: array SPR
T7 peptide: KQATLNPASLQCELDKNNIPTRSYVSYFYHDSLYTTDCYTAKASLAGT

[10] = molecular target: T3, human MS4A4A; assay: FACS, K562 cells, supernatant
Method: as §3, §4

[11] = molecular target: T3, human MS4A4A; assay: FACS, U937 cells, supernatant
Method: as §3, §4

[12] = molecular target: T3, human MS4A4A; assay: FACS, 300.19 cells, supernatant
Method: as §3, §4

[13] = molecular target: T4, human MS4A4A ECL2 peptide (amino acid …); assay: peptide ELISA
Method: as §2

[14] = molecular target: T1, cynomolgus (cyno) MS4A4A; assay: FACS, 300.19 cells, supernatant
Method: as §3, §4

[15] = molecular target: T3, human MS4A4A; assay: FACS, U937 cells, supernatant; U937 cells overexpressing h4A
Method: as §3, §4

[16] = molecular target: T2, human MS4A4A ECL1 peptide (amino acid …); assay: ELISA, hybridoma supernatant
Procedure, shortened: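 Plates coated overnight at 4° C with 1-10 μg/ml free or BSA-conjugated peptide in carbonate buffer pH 9.6, blocked with PBS/0.5% BSA/0.05% Tween20. Antibodies (hybridoma supernatants) bound 30 min at room temperature with shaking; TMB development 5-10 min, stopped, absorbance read at 650 nm.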

[17] = molecular target: T5, BSA-conjugated human MS4A4A ECL2 …; assay: ELISA, supernatant
Method: as §2, with “1-10 μg/ml” for “2 or 10 m/ml”, “C3041)” for “Cat#C3041)”, “[…]).” for “μl/well).”, “TMBW-1000-01)” for “Cat#TMBW-1000-01)”, “BSTP-1000-01).” for “Cat#BSTP-1000-01).”, “650 nm” for “650nm”

[18] = molecular target: T3, human MS4A4A; assay: FACS, HEK293, supernatant
[19] = molecular target: T1, cynomolgus (cyno) MS4A4A; assay: FACS, HEK293, supernatant
[20] = molecular target: T1, cynomolgus (cyno) MS4A4A; assay: flow cytometry (anti-mouse IgG Fc-APC), hybridoma supernatant on 300.19 cells transfected with cyno MS4A4A
Method: Flow cytometry was performed as follows. Briefly, transiently-transfected cells were labeled with LIVE/DEAD Fixable Aqua Dead Cell Stain Kit (ThermoFisher Scientific Cat#L34957) on ice for 30 minutes. […] 2×10⁵ cells were aliquoted per well in 96-well U-bottom plates and incubated with 50 μl of culture supernatant on ice for 30 minutes. […] Following this secondary incubation, the cells were again washed twice with ice-cold FACS buffer and resuspended in a final volume of 200 μl of FACS buffer. Analysis was performed on a FACS Canto system (BD Biosciences), with gates drawn to exclude dead (Aqua-positive) cells.

- Kd [1]: 7.6 nM
B1: anti-MS4A4A antibody 4A-21, huIgG1 chimera (antibody, V domains shown)
VH: QIQLVQSGPELKKPGETVKISCKASGYIFTSYGLSWVKQTPGKGLKWMGWINTYSGVPTYANDFKGRFAFSLETSASTTYLRINNLKNDDTATYFCARSLVDYWGQGTPLTVSS
VL: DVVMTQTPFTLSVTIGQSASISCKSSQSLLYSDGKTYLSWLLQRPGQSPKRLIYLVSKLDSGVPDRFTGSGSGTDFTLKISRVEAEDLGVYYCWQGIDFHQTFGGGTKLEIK
notes: also called 4A-21 (hIgG1)

- binding result [2]: no binding
- fold increase in MFI [3]: > 2 fold
- binding result [4]: no binding
- binding result [5]: binds
B2: anti-MS4A4A antibody 4A-213 (murine) (antibody, V domains shown)
VH: QVQLKESGPGLVAPSQSLSITCTVSGFSLTSYGVHWVRQPPGKGLEWLGVIWVGGSTNYNSALMSRLSISKDNSKSQVFLKMNSLQTDDTAMYYCARAVYYYGSSYYFDYWGQGTTVTVSS
VL: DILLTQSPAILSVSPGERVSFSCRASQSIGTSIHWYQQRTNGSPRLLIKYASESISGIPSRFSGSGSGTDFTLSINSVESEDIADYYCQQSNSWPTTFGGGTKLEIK
notes: murine hybridoma antibody

- Kd [6]: 0.84 nM
- Kd [1]: 3.1 nM
B3: anti-MS4A4A antibody 4A-18, huIgG1 chimera (antibody, V domains shown)
VH: QVQLQQPGTELVKPGASVKLSCKASGYTFTSYWIHWVKQRPGQGLEWIGNINPTNGGTNYNERFKSKATLTVDKSSSTAYMQLSSLTSEDSAVYYCARAYYYGSSLFAYWGQGTLVTVSA
VL: DIVMTQSQKFMSTTVGDRVSITCKASQNVGTAVAWSQQKPGQSPKLLIYSASYRHTGVPDRFTGSGSGTDFTLTITNMQSEDLADYFCQQYSTYPWTFGGGTKLEIK
notes: also called 4A-18 (hIgG1)

- binding result [7]: no binding
- binding result [2]: no binding
- binding result [8]: no binding (tested: 2000 nM)
- binding result [9]: no binding (tested: 2000 nM)
- Kd [6]: 1.6 nM
B4: anti-MS4A4A antibody 4A-18 (murine) (antibody, IgG1, V domains shown)
VH: B3 VH
VL: B3 VL
notes: murine hybridoma antibody, msIgG1; also called 4A-18 (msIgG1)

- Kd [6]: 3.5 nM
- Kd [1]: 1.8 nM
B5: anti-MS4A4A antibody 4A-202, huIgG1 chimera (antibody, V domains shown)
VH: QVQLQQSGAELARPGASVKLSCKASGYTFTNYWMQWVKQRPGQGLEWIGATHPGHGDTRYTQKFKGKATLSADKSSSTAYMQLSNLASEDSAVYYCAREEVYYGFRSYWYFDVWGAGTTVTVSS
VL: not shown

- fold increase in MFI [10]: > 2 fold
- binding result [2]: no binding
- fold increase in MFI [11]: > 2 fold
- binding result [4]: no binding
- fold increase in MFI [12]: > 2 fold
B6: anti-MS4A4A antibody 4A-220 (antibody, V domains shown)
VH: EVQLQQSGPDLVKPGASVKISCKASGYSFNGYFMNWVMQSHGESLEWIGRINPYNGDTLYNQKFKGKATLTVDKSSSTGHMELRSLASEDSAVYYCARVKGYDYDGAMDYWGQGTSVTVSS
VL: DIVMTQSPDSLAVSLGERATINCRSSQSLLQSGNQKSSLAWYQQKPGQPPKLLIFWARTRQSGVPDRFSGSGSGTDFTLTISSVQAEDVAVYYCQQYSDTPFTFGQGTKLEIK
notes: murine hybridoma antibody

- fold increase in MFI [10]: > 2 fold
- binding result [13]: binds
- binding result [2]: no binding
- fold increase in MFI [11]: > 2 fold
- fold increase in MFI [12]: > 2 fold
- fold increase in MFI [14]: > 2 fold
B7: anti-MS4A4A antibody 4A-214 (antibody, V domains shown)
VH: EVKLEESGGGLVQPGRSMKLSCVASGFTFSNYWMNWVRQSPEKGLEWVAEIRLKSNNYATHYAESVKGRFTISRDDSKSSVYLQMNNLRAEDTGIYYCSSMIIVDYWGQGTTVTVSS
VL: DIVLTQSPASLTVSLGQRATISCRASQSVSSSTYSYLHWYQQRPGQPPKLLIKYASNLESGVPARFSGSGSGTVFTLNIHPVEEEDTATYYCQHSWEIPLTFGAGTKLEMK
notes: murine hybridoma antibody

- binding result [2]: no binding
- fold increase in MFI [3]: > 2 fold
- fold increase in MFI [15]: > 2 fold
- binding result [4]: no binding
B8: anti-MS4A4A antibody 4A-204 (antibody, V domains shown)
VH: DVKLVESGGGLAKLGGSLKLSCAASGFTFSSFYMSWVRQTPEKRLELVAAINSNGGSTYYPDSVKGRFTISRDNVKNTLYLQMSSLKSEDTAMYYCARHLYYGLYYAMDYWGQGTSVTVSS
VL: ENVLTQSPAIMSASPGEKVTMTCSASSSVSFMYWYQEKSSTSPKLWIYDTSKLASGVPGRFSGSGSGNSYSLTISSMGAEDVATYYCFQGSGFPLTFGSGTKLEIK
notes: murine hybridoma antibody

- binding result [16]: no binding
- binding result [17]: binds
- binding result [8]: no binding (tested: 2000 nM)
- binding result [9]: no binding (tested: 2000 nM)
- Human 4A:parental cell ratio [18]: 4.2 ratio
- Cyno 4A:parental cell ratio [19]: 0.647 ratio
- binding result [20]: no binding
B9: anti-MS4A4A antibody 4A-14 (antibody, V domains shown)
VH: EVKLEESGGGLVQPGGSMKLSCAASGFTFSDAWLDWVRQSPEKGLEWVAEIRSKANDHATYYAESVKGRFTISRDDSKSRFYLQMNSLRAEDTGIYYCSVDYYGFFWGQGTLVTVSA
VL: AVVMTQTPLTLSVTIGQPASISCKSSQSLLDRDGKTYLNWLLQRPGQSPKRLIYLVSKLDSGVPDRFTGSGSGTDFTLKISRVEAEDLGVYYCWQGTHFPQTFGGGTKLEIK
notes: murine hybridoma antibody
